Source: US20210170043A1, “DC-SIGN ANTIBODY CONJUGATES COMPRISING STING AGONISTS” (NOVARTIS AG, priority 2018, published 2021)
Like-named read-outs stand apart in the source and are kept apart here.

Tests used:
[1] = system: cynomolgus monkey DC-SIGN; test: FACS binding to CHO cells stably expressing cynomolgus monkey DC-SIGN; conditions: FACS MFI, average
Description: (§1) The affinity of various antibodies and ADCs to DC-SIGN and its species orthologues was determined using FACS. Purified IgGs were titrated to determine EC50 values for binding to cell surface expressed DC-SIGN.
(§2) For this purpose, human DC-SIGN expressing or cynomolgus monkey DC-SIGN expressing stable CHO cell lines or K562 expressing DC-SIGN or K562 expressing L-SIGN cell lines were checked for density and viability using VICELL (Beckman Coulter), and washed once with 4° C. PBS. Cells were stained with DAPI (0.5 ug/mL) diluted in PBS for 30 min on ice. Cells were diluted into 4° C. FACS buffer (PBS, 10 mM EDTA, 2% FBS). 125 μl of cells were seeded (10,000 cells/well) into 96-well v-bottom plates (Nunc cat#442587) and centrifuged for 4 min at 1500 rpm at 4° C. Supernatant was removed. Cells were incubated with a serial dilution of each anti-DC-SIGN antibody in FACS buffer at concentrations ranging across several logs with a top concentration no higher than 50 μg/mL for 60 minutes at 4° C. Following incubation, cells were spun down (1500 rpm, 4 min, 4° C.) and washed two times with FACS buffer. A fluorophore-conjugated anti-hFc gamma-AF-647 (Southern Biotechnology) detection antibody was added at 1:400 and samples were incubated for 1 h on ice in the dark. Following incubation, FACS buffer was added, and the cells were spun down (1500 rpm, 4 min, 4° C.) and washed two times with FACS buffer. After the final wash, cells were resuspended in Fixative Buffer (Biolegend, 420801) and 90 μl of FACS buffer followed by readout on the flow cytometry machine (BD LSRFortessa Cell Analyzer; Cat #647177). Geometric Mean fluorescence intensity (MFI) of live, single cells was calculated in Flowjo 10.4.2 and exported into Graphpad Prism7 for EC50 determination.
In a similar experiment the antibodies were tested for cross-reactivity using engineered isogenic matched cell line.

[2] = target: T1, DC-SIGN Carbohydrate Recognition Domain (CRD) (Homo sapiens, UniProt Q9NNX6); test: Biacore affinity to DC-SIGN Carbohydrate Recognition Domain; type: binding; conditions: 25° C.
T1 construct: The DC-SIGN CRD was captured via the His tag; AviTag (C)
T1 sequence (Q9NNX6 with tags, fused parts or gaps): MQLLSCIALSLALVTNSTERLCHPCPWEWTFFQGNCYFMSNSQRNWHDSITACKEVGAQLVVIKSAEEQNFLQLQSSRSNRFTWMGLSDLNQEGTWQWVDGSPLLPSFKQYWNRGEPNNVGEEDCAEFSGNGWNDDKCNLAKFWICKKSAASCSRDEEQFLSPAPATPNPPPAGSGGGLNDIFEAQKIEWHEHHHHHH
Description: The affinity of various antibodies to DC-SIGN Carbohydrate Recognition Domain (CRD) was determined using Biacore. Purified IgGs for the parental antibodies were titrated to determine Kd values for binding to purified antigen domain by two methods described below.
In method 1 DC-SIGN was used as the ligand (surface attached) and the antibody the analyte (injected at different concentrations). The DC-SIGN CRD was captured via the His tag on a CM5 chip that was prepared by immobilizing 12000RU NeutrAvidin followed by capturing ˜550RU of Tris-NTA biotin. Fresh DC-SIGN was used for each dose. Each cycle consisted of charging the surface with a 120s pulse of 5 mM NiCl2, capturing the same amount of DC-SIGN, injecting the antibody at the desired concentration, and stripping the Ni^2+ with pulses of 350 mM EDTA and 500 mM imidazole to remove all DC-SIGN. Antibodies were injected at concentrations between 250 and 31 nM for 180s and allowed to dissociate for 600s. The reverse orientation was used in method 2-antibody the ligand and DC-SIGN the analyte. A CM5 chip was first prepared with mouse anti-human IgG Fc and used to capture the antibodies. […] Kinetic parameters were calculated using the 8K analysis software.

human DC-SIGN [3] = target: T2, human DC-SIGN (Homo sapiens, UniProt Q9NNX6); test: FACS binding to K562 cells expressing human DC-SIGN; conditions: FACS MFI
T2 construct: expressed in transfected cells
T2 sequence (Q9NNX6 1-404): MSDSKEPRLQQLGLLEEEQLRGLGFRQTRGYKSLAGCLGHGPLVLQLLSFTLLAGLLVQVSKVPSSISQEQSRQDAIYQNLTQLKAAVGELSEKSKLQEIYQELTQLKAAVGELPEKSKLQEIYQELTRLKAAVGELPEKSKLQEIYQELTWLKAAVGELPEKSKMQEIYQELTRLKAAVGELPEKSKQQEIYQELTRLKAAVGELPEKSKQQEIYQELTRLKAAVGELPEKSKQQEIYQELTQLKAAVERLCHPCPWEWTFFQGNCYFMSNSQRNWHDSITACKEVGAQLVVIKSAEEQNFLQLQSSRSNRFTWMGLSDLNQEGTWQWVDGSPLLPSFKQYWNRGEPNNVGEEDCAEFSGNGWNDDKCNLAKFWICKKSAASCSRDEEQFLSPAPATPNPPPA
Description: as §1, §2

human DC-SIGN [4] = target: T2, human DC-SIGN; test: FACS binding to CHO cells stably expressing human DC-SIGN; conditions: FACS MFI, average
Description: as §1, §2

Chain of cynomolgus monkey DC-SIGN (as listed by the source): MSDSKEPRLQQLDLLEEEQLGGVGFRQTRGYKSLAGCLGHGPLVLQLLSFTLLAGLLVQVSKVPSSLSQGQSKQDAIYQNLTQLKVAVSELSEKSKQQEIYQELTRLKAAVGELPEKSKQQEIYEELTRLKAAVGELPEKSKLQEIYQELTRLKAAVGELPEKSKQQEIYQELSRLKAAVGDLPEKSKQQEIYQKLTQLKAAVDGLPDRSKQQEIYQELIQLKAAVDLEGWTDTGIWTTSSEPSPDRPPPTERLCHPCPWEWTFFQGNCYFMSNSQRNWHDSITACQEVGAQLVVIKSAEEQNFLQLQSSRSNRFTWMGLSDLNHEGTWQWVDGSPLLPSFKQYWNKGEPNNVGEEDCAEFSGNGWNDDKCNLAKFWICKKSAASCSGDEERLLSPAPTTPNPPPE

B1: 892D15: anti-DC-SIGN antibody; All antibodies except 892D15 and 942K11 bind human and cynomolgus monkey DC-SIGN similarly; headings print 952D15 (antibody)
heavy: QVTLRESGPALVKPTQTLTLTCTFSGFSPSTSGMSVSWIRQPPGKALEWLALIDWDDDKYFSTSLKTRLTISKDTSKNQVVLTMTNMDPVDTATYYCARAHSGSYFDYWGQGTLVTVSSASTKGPSVFPLAPSSKSTSGGTAALGCLVKDYFPCPVTVSWNSGALTSGVHTFPAVLQSSGLYSLSSVVTVPSSSLGTQTYICNVNHKPSNTKVDKRVEPKSCDKTHTCPPCPAPELLGGPSVFLFPPKPKDTLMISRTPEVTCVVVAVSHEDPEVKFNWYVDGVEVHNAKTKPREEQYNSTYRVVSVLTVLHQDWLNGKEYKCKVSNKALAAPIEKTISKAKGQPREPQVYTLPPSREEMTKNQVSLTCLVKGFYPCDIAVEWESNGQPENNYKTTPPVLDSDGSFFLYSKLTVDKSRWQQGNVFSCSVMHEALHNHYTQKSLSLSPGK
light: DIQMTQSPSTLSASVGDRVTITCRASQSISNWLAWYQQKPGKAPKLLIYKASSLESGVPSRFSGSGSGTEFTLTISSLQPDDFATYYCQQFNSYWTFGQGTKVEIKRTVAAPSVFIFPPSDEQLKSGTASVVCLLNNFYPREAKVQWKVDNALQSGNSQESVTEQDSKDSTYSLSSTLTLSKADYEKHKVYACEVTHQGLSSPVTKSFNRGEC
In the case of B1, the “cyno DC-SIGN CHO EC50 (ug/mL) ave.” value [1] is reported as 15.69 µg/mL, the Kd ([2]; method 1: DC-SIGN CRD captured on chip, antibody as analyte, read-out: high density DC-SIGN CRD on chip) is reported as 0.111 µM and the Kd ([2]; method 2: antibody captured on chip, DC-SIGN CRD as analyte, read-out: Ab on chip) is reported as 47.6 µM. For the same molecule, the “human DC-SIGN K562 EC50” value (human DC-SIGN [3]) was greater than 10 µg/mL and the “human DC-SIGN CHO EC50 (ug/mL) ave.” value (human DC-SIGN [4]) was 0.15 µg/mL.
